Patent publication US20230220098A1, “THERAPEUTIC DRUG FOR POLYCYTHEMIA” (PERSEUS PROTEOMICS INC., priority 2019, published 2023)

Experiments:
HEL cells = assay: Combined effects of TfR436 and hydroxyurea on cell growth and cell death; type: cell-based; conditions: 72 hours
Experimental: HEL cells were cultured in an RPMI-1640 (Sigma-Aldrich)+10% FBS (Sigma-Aldrich)+1% PenStrep (Gibco) medium, and were then adjusted to 20000 cells/mL with the same medium as described above. Hydroxyurea (Wako Pure Chemical Industries, Ltd.) was weighed and was then dissolved in a concentration of 100 mM in distilled water for injection (Otsuka Pharmaceutical). The thus adjusted cell solution was seeded on a 96-well plate (Thermo SCIENTIFIC) in an amount of 100 μL/well. […]
From the plate after completion of the culture, the cultured cells in each well were dispensed into a V-bottom plate (Costar) in an amount of 100 μL, while pipetting. […] Then, the fluorescence of FL2 and the number of cells were measured. From the obtained results, the number of living cells (PI negative) and the number of dead cells (PI positive) were calculated, and thereafter, Viability (the number of PI-negative cells/the total number of cells×100) (%) and cell death percentage (100−Viability) (%) were calculated. Furthermore, the growth percentage in each well was calculated, when the number of living cells in the cell growth control was set to be 100%. […]

erythroblast cells = assay: Growth of normal erythroblast cells derived from CD34-positive cells; type: cell-based; conditions: FIG. 4
Experimental: Frozen CD34-positive cells (POIETICS) were thawed at 37° C., and were then suspended in IMDM (GIBCO)+30% FBS (Sigma-Aldrich) and 100 U/ml DNase (QIAGEN), and thereafter, the cells were […] according to the instructions of the manufacturer. Thereafter, the cells were adjusted to 5×10^4 cells/ml with a culture medium prepared by adding 2-ME (50 μmol/L) (GIBCO), hIL-3 (100 U/ml) (Milteny biotec), hEPO (4 U/ml) (Roche), and hSCF (50 ng/ml) (Peprotech) to an SF-03 medium (EIDIA Co., Ltd.). The resulting cells were dispensed into a 24-well plate in an amount of 1 ml/well, and were then cultured at 37° C. in a 5% CO2 incubator. Seven days later, the cells were seeded into a 96-well plate, and the antibody was then added thereto in an amount of 0.15 ng/mL to 10 μg/mL, followed by culturing the mixture. A well without addition of the antibody was used as a control. Ninety six hours later, each well was fully stirred by pipetting, and 150 μl of the cell lysate was transferred into a V-bottom plate. Then, 20 μI of the transferred cell lysate was absorbed by FACS Calibur, and the number of cells was then counted. The value obtained by multiplying the obtained cell number by 10 was set to be the number of cells per well, and the growth percentage of the cells at each concentration of the antibody was then calculated, while the mean value of the control was set to be 100%.

Tf-TfR binding = target: T1, Tf-TfR binding (Homo sapiens, UniProt P02786); assay: Tf-TfR binding inhibition ELISA (HRP-labeled Tf on solid-phase sTfR); conditions: dose 100 ng/mL; FIG. 3
T1 construct: A human TfR extracellular domain (the amino acids at positions 89 to 760); made in house; host or cells: Expi293 cells
Experimental: The Tf-TfR binding inhibitory activity of an antibody can be measured according to the method described in the after-mentioned “Example 2(2): Comparison between TfR436 antibody and antibodies of other companies in terms of Tf-TfR binding inhibition.” A TfR solution is dispensed into a substrate (a 96-well plate, etc.) and is then left at rest to obtain a solid phase, and thereafter, blocking is carried out. Subsequently, an HRP-labeled Tf solution is dispensed into the substrate, and an antibody is further added thereto, so that they are allowed to react with each other at room temperature. Thereafter, the substrate is washed, and a coloring reagent (TMB, etc.) is then added thereto, so that they are allowed to react with each other. After that, the absorbance is measured using a plate reader. By performing the above-described operations, the Tf-TfR binding inhibitory activity of the antibody can be evaluated.
The sTfR described in Example 1 was adjusted to a concentration of 5.0 μg/mL by addition of PBST, and the diluted solution was then dispensed into MaxiSorp 96-well plate (Nunc) in an amount of 100 μL/well. Thereafter, it was left at rest at 4° C. overnight to obtain a solid phase. […] Thereafter, the absorbance at 450 nm (ref. 620 nm) was measured.

T1 sequence (P02786 89-760): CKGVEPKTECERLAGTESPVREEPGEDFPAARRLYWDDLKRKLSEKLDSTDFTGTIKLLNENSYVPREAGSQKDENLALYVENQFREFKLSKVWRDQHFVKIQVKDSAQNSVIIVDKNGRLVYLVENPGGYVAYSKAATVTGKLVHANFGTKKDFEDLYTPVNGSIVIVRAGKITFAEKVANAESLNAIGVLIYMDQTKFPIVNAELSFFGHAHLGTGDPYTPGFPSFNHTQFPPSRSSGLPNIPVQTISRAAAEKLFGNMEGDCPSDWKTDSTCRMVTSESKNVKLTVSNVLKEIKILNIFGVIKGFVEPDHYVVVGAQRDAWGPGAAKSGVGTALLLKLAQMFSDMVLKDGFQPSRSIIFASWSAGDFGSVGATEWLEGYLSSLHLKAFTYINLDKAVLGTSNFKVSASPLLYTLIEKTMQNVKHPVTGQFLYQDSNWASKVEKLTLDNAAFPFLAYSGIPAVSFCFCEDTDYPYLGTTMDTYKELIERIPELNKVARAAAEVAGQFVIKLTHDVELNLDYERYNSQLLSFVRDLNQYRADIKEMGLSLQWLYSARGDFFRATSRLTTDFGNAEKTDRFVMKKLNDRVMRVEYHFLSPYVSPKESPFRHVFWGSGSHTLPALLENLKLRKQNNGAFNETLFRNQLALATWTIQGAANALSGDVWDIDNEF

B1: TfR436: anti-human transferrin receptor antibody, VH SEQ ID NO: 7 and VL SEQ ID NO: 8, described in WO2014/073641; called PPMX-T003 in Tables 3 and 4 (antibody, listed as Homo sapiens, V domains shown)
VH: DVQLVQSGGGVVQPGRSLRLSCAASGFPFKSYGMHWVRQAPGKGLEWVAVISYDGSNKYYADSVKGRFTISRDNSKNTLYLQMNSLRGEDTAVYYCARDSNFWSGYYSPVDVWGQGTTVTVSS
VL: NFMLTQPHSVSESPGKTVTISCTRSSGSIASNSVQWYQQRPGSAPITVIYEDTQRPSGVPDRFSGSIDSSSNSASLTISGLQTEDEADYYCQSYDSAYHWVFGGGTKLAVL
cell growth inhibition, combined use with hydroxyurea (HEL cells; Table 3): synergistic cell growth inhibition effects were observed from a half or more of combined uses | cell death percentage, combined use with hydroxyurea (HEL cells; all combined uses except lowest concentrations of both, Table 4): synergistic cell death-enhancing effects | growth of erythroblast cells (erythroblast cells; 0.15 ng/mL to 10 μg/mL, 96 hours): suppressed the growth | GI50 (erythroblast cells; 96 hours culture): 0.125 µg/mL | inhibition of the binding of Tf-TfR (Tf-TfR binding): completely inhibited
